# Experimental data reported in IntAct's records for PubMed 24485456.
# B1: Synaptogenesis protein syg-2 (Caenorhabditis elegans), Q9U3P2 (parent)
# chain: MLSQAILLWLFGSIHISSQFFLESPSNLSTIAGESITFRCSAEKSPEPIVYSQWKSNTGSLLGYHQEGILPGHQGRFSYIKQNAEELHLKITHVNLDDDGEYECQMLHPEEGPIRAKSFLNIIVPPQLVYFSNYQPNSIIAVKENTPLNITCVVPNVKPEPEVLWYMDGKVMSRDVKQASTPHLNKTFTVYTSLVVQSDRNDHGKVITCEAFQKETDIRITTNTTLDVLFPPSDPTVEILRNPSALRSGDNVTIACSVTGGNPPPDVFWYHENKRLQSHSTLDTRSKEIKNIYSFIASQNDNMAEYECRANNSRTGNPKRKAMKLEVNYPPASVELFGESNIRYGSSANIQCKSLPSNPASQITWIINGRSVPTPTQREFVVENGIVSSSNVSVHSNELSVEAHQINVECMATNPEGSSAKQHVIKIIAPPKAPIITGLEDRKFFEGDIVNVTCEAQGGNPLAELSWYRGSEKHLVKGRKKMKWSQVKKKLVMSLLCLCEVVIMNFFRFSKNVFYFFRFTLFIECGVNGAHNEVAGFSSYSTLALRVDRTMNTQRLKCEATNAALDEPLIESQYLSVYYPPRRVLIRPADSGDQRLLVGKSARLVCGTLSSNPAAHISWQFSRATDDNKVHLGDVSLNETTRDNGFNVENVLSFTPTEEYDGTVVHCIANHPEWKHSVNTSFPLNVMYPPKMLVNDPVTVVMSEGDSFKENLTVRGNPAISLWQWRKNGVPFDHTIGRVFARGAVLSGKQLLSTDAGVYTLTATNSVGSTNITIKLAVEYSARITSISTPVIAATGDTVLLECEADGEPSKANMIHWYKNGEILAAQHRGHKKAILRLNATEQQSGEYTCKADNGIGVPAEGQTFLLVNSAPRVLPVARYAKTAGILGGVAKARCKVYAVPTVEFVWEKDEQLIKKNSSKYSIVNTQIDYSTYESTLWIKNIVPDDYTKKVKCIARNSFGTDHLSIPIIPPTHPDEPFNLTMTNSTLNTISVAWEPRFDGGSDQIFEVKYRRQNDDLIHLVNTTHTNLRLSGLATANTYFFQIRSINARGFASSWTSPVIFATLNEDGVNVAMIRNEKLKLTTWIPYILIFIVLFMLLNVVICCFVCNRTKKRKLREKTEMARTAINGGDVRQVQMYGTMMGNDGMSRRDIDDRPEMSEDEHSVRTMIEVSPNGYMQPIEPMLYESTGLLEYDYQTRSYMGSSQGTRSMTYANVPYPEPPQPSYHSNWNSLQRQSNNNTSPQHHLSTFINPNMGVRAGPINYAQLDGDLV
# partner: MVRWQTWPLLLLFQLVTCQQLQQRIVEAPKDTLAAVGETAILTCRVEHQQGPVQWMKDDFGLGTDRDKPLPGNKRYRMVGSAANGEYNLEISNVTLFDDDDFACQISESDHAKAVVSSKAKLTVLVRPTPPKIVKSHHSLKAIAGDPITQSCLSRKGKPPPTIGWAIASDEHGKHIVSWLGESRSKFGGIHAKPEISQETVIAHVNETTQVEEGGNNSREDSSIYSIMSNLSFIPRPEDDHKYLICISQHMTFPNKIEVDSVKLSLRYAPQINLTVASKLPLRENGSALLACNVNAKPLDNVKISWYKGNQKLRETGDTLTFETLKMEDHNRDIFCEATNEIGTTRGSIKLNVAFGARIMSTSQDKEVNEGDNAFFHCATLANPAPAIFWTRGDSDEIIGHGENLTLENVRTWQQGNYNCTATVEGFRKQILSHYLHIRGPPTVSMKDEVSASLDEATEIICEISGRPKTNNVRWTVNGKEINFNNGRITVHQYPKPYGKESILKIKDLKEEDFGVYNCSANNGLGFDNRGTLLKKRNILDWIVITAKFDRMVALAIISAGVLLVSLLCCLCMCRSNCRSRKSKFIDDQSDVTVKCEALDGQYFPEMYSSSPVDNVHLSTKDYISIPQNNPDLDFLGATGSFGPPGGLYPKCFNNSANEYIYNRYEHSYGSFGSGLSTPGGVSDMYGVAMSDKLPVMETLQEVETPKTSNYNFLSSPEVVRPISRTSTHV
# B2: Synaptogenesis protein syg-1 (Caenorhabditis elegans), B1Q236 (parent)
# chain: B1 partner
# partner: B1 chain
# Variants of: B1
# Conditions: with syg1_caeel syg-1, B1Q236
row,Variant,effect of a mutation on the interaction
1,Q105A,disrupting interaction strength
2,Q53A,decreasing interaction strength
3,R115A,decreasing interaction strength
4,L61A,decreasing interaction strength

# Variants of: B2
# Conditions: with syg2_caeel syg-2, Q9U3P2
row,Variant,effect of a mutation on the interaction
1,F60A,disrupting interaction strength
2,Q54A;M56A;F60A;S107A,disrupting interaction strength
3,Q54A;F60A,disrupting interaction strength
4,Q54A,decreasing interaction strength
5,Q105A,decreasing interaction strength
